# Test results reported in patent US20060241039A1.
# Molecular target: FVa light chain (FVaL) derived from ΔFV or its mutants by thrombin (human) (UniProt P12259)
# Test: cell-based or functional assay
# Sequence of UniProt P12259 (P12259 other isoform, or with tags, fused parts or gaps mutant limits assumed): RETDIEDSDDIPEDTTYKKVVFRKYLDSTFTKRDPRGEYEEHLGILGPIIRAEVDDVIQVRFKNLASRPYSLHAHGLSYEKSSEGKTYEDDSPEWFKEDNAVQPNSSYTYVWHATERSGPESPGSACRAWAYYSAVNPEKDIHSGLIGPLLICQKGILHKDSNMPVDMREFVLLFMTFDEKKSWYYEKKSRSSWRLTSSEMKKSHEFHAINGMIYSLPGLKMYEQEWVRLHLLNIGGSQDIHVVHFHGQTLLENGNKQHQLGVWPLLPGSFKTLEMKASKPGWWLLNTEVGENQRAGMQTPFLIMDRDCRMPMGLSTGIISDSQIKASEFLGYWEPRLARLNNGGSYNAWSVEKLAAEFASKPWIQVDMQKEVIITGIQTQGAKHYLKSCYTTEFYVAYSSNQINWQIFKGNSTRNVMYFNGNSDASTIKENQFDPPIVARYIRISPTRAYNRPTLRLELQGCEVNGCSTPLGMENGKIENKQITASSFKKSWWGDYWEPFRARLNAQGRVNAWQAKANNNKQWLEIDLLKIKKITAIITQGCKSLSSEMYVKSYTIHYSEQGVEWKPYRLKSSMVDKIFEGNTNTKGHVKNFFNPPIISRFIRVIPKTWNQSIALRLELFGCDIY
substance,measurement,value
"FVaH derived from ΔFV multipoint mutant ED/EDD (E96, D102, E108, D111 and D112 to Ala) (from UniProt P12259 29-737)","inhibition of ΔFV activity (prothrombinase function, thrombin generation)",98%
